According to patent US20220112244A1 (DOMPE FARMACEUTICI S P A, published 2022):

molecular target: IL-17A (agonist in the IL-17RA/IL17RC dimerization assay) (UniProt Q16552 24-155); assay: cell-based or functional assay
Sequence (Q16552 24-155 limits assumed): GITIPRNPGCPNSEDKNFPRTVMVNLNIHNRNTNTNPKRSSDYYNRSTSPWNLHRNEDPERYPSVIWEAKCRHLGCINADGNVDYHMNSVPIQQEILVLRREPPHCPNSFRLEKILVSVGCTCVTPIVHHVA

Row | IC50 in IL-17RA/IL7RC dimerization assay [µM] | Binder
1 | < 10 | Ac-IHVTIPADLWDWIQK-NH2 [peptide of SEQ ID NO: 220]
2 | < 10 | Ac-IHVTIPADLWDFINK-NH2 [peptide of SEQ ID NO: 210]
3 | < 10 | Ac-IHVTIPADLWDWKNK-NH2 [peptide of SEQ ID NO: 213]
4 | < 10 | Ac-VHVTVPQELFEWVRR-NH2 [peptide of SEQ ID NO: 225]
5 | < 10 | Ac-IHVTIPADLWDWFNK-NH2 [peptide of SEQ ID NO: 218]
6 | < 10 | Ac-IHVTIPADLWDHINK-NH2 [peptide of SEQ ID NO: 209]
7 | < 10 | Ac-IHVTIPADLWDWGNK-NH2 [peptide of SEQ ID NO: 215]
8 | < 10 | Ac-VHVTVPQELYEWVRR-NH2 [peptide of SEQ ID NO: 226]
9 | < 10 | Ac-IHVTIPADLWDWPNK-NH2 [peptide of SEQ ID NO: 217]
10 | < 10 | Ac-IHVTIPADLWDWENK-NH2 [peptide of SEQ ID NO: 212]
11 | < 10 | Ac-IHVTIPADLWDWLNK-NH2 [peptide of SEQ ID NO: 216]
12 | < 10 | Ac-IHVTIPADLWDWYNK-NH2 [peptide of SEQ ID NO: 219]
13 | < 10 | Ac-VHVTVPQELWEWVRR-NH2 [peptide of SEQ ID NO: 224]
14 | < 10 | Ac-IHVTIPADLWDWIND-NH2 [peptide of SEQ ID NO: 223]
15 | < 10 | Ac-IHVTIPADLWDYINK-NH2 [peptide of SEQ ID NO: 211]
16 | < 10 | Ac-IHVTIPADLWDWANK-NH2 [peptide of SEQ ID NO: 214]
17 | < 10 | Ac-IHVTIPADLWDWIDK-NH2 [peptide of SEQ ID NO: 221]
18 | < 10 | Ac-IHVTIPADLWDWINH-NH2 [peptide of SEQ ID NO: 222]
19 | < 10 | Ac-IHVTIPADLWNWINK-NH2 [peptide of SEQ ID NO: 208]

Continued, binder first:

Row | Binder | IC50 in IL-17RA/IL7RC dimerization assay [µM]
20 | Ac-IEVTIPADLWDWINK-NH2 [peptide of SEQ ID NO: 164] | < 10
21 | Ac-IHFTIPADLWDWINK-NH2 [peptide of SEQ ID NO: 174] | < 10
22 | Ac-IHVTYPADLWDWINK-NH2 [peptide of SEQ ID NO: 185] | < 10
23 | Ac-IHVTIPVDLWDWINK-NH2 [peptide of SEQ ID NO: 195] | < 10
24 | Ac-IHVTIPADAWDWINK-NH2 [peptide of SEQ ID NO: 201] | < 10
25 | Ac-IHVTIPIDLWDWINK-NH2 [peptide of SEQ ID NO: 196] | < 10
26 | Ac-IHVTIPADVWDWINK-NH2 [peptide of SEQ ID NO: 204] | < 10
27 | Ac-IYVTIPADLWDWINK-NH2 [peptide of SEQ ID NO: 166] | < 10
28 | Ac-IHATIPADLWDWINK-NH2 [peptide of SEQ ID NO: 167] | < 10
29 | Ac-IQVTIPADLWDWINK-NH2 [peptide of SEQ ID NO: 165] | < 10
30 | Ac-IHVTVPADLWDWINK-NH2 [peptide of SEQ ID NO: 183] | < 10
31 | Ac-IHLTIPADLWDWINK-NH2 [peptide of SEQ ID NO: 169] | < 10
32 | Ac-IHVQIPADLWDWINK-NH2 [peptide of SEQ ID NO: 178] | < 10
33 | Ac-IHVTIPLDLWDWINK-NH2 [peptide of SEQ ID NO: 193] | < 10
34 | Ac-IHVTIPADGWDWINK-NH2 [peptide of SEQ ID NO: 202] | < 10
35 | Ac-IHVTIGADLWDWINK-NH2 [peptide of SEQ ID NO: 187] | < 10
36 | Ac-IHVTGPADLWDWINK-NH2 [peptide of SEQ ID NO: 180] | < 10
37 | Ac-IHVTIPADPWDWINK-NH2 [peptide of SEQ ID NO: 203] | < 10
38 | Ac-IHVTIPNDLWDWINK-NH2 [peptide of SEQ ID NO: 197] | < 10
39 | Ac-IHVTIPADIWDWINK-NH2 [peptide of SEQ ID NO: 205] | < 10
40 | Ac-IHVTIPADLWDWIEK-NH2 [peptide of SEQ ID NO: 11] | < 0.4
41 | Ac-IHPTIPADLWDWINK-NH2 [peptide of SEQ ID NO: 170] | < 10

Row | Binder | IC50 in IL-17RA/IL7RC dimerization assay [µM]
42 | Ac-IHWTIPADLWDWINK-NH2 [peptide of SEQ ID NO: 173] | < 10
43 | Ac-IHVSIPADLWDWINK-NH2 [peptide of SEQ ID NO: 175] | < 10
44 | Ac-VMVTIPADLYEWINK-NH2 [peptide of SEQ ID NO: 16] | < 0.4
45 | Ac-IHVNIPADLWDWINK-NH2 [peptide of SEQ ID NO: 177] | < 10
46 | Ac-IHVTINADLWDWINK-NH2 [peptide of SEQ ID NO: 191] | < 10
47 | Ac-IHVTLPADLWDWINK-NH2 [peptide of SEQ ID NO: 181] | < 10
48 | Ac-IHYTIPADLWDWINK-NH2 [peptide of SEQ ID NO: 172] | < 10
49 | Ac-IHVTIPADLHDWINK-NH2 [peptide of SEQ ID NO: 206] | < 10
50 | Ac-IHVTIPAYLWDWINK-NH2 [peptide of SEQ ID NO: 200] | < 10
51 | Ac-IHGTIPADLWDWINK-NH2 [peptide of SEQ ID NO: 168] | < 10
52 | Ac-IHITIPADLWDWINK-NH2 [peptide of SEQ ID NO: 171] | < 10
53 | Ac-IHVTFPADLWDWINK-NH2 [peptide of SEQ ID NO: 184] | < 10
54 | Ac-IHVTIVADLWDWINK-NH2 [peptide of SEQ ID NO: 189] | < 10
55 | Ac-IHVTIPAQLWDWINK-NH2 [peptide of SEQ ID NO: 199] | < 10
56 | Ac-IHVTIPQDLWDWINK-NH2 [peptide of SEQ ID NO: 198] | < 10
57 | Ac-IHVTIPPDLWDWINK-NH2 [peptide of SEQ ID NO: 194] | < 10
58 | Ac-IHVTIIADLWDWINK-NH2 [peptide of SEQ ID NO: 190] | < 10
59 | Ac-IHVTILADLWDWINK-NH2 [peptide of SEQ ID NO: 188] | < 10
60 | Ac-IHVTAPADLWDWINK-NH2 [peptide of SEQ ID NO: 179] | < 10
61 | Ac-IHVTIPADLFDWINK-NH2 [peptide of SEQ ID NO: 207] | < 10
62 | Ac-IHVYIPADLWDWINK-NH2 [peptide of SEQ ID NO: 176] | < 10
63 | Ac-IHVTIPADLWDWVEE-NH2 [peptide of SEQ ID NO: 15] | < 0.4
